Target: T1, IL-17AA homodimer (human, UniProt Q16552 24-155)
T1 construct: also called IL-17A homodimer
T1 sequence: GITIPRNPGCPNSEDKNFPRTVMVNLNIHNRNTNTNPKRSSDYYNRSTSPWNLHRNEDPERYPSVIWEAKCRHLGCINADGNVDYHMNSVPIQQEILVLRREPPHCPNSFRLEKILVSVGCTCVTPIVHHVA
Assay: ELISA, plate coated with IL-17AA; reference of the relative-potency calculation

binding result: binds
B1: anti-IL-17A/F antibody MCAF5352A, Reference Material (composition comprising 2% of the glycosylation variant) (antibody, human IgG1, kappa, V domains shown)
VH: EVQLVESGGGLVQPGRSLRLSCAASGFTFDDYAMHWVRQAPGKGLEWVSGINWSSGGIGYADSVKGRFTISRDNAKNSLYLQMNSLRAEDTALYYCARDIGGFGEFYWNFGLWGRGTLVTVSS
VL: not shown
notes: Produced in CHO cells; Predominantly the main species, which is not glycosylated in the variable region, with about 2% Peak 1; also called antibody standard; sample with 2% glycosylation variants

— patent US20180079807A1 (Genentech, published 2018)
